Data published in patent publication US20180339057A1 (Novo Nordisk, published 2018).

T1: human MIC-1 receptor (hGFRAL, GDNF family receptor alpha like), full length (human, UniProt Q6UXV0 19-394)
T1 sequence (looked up): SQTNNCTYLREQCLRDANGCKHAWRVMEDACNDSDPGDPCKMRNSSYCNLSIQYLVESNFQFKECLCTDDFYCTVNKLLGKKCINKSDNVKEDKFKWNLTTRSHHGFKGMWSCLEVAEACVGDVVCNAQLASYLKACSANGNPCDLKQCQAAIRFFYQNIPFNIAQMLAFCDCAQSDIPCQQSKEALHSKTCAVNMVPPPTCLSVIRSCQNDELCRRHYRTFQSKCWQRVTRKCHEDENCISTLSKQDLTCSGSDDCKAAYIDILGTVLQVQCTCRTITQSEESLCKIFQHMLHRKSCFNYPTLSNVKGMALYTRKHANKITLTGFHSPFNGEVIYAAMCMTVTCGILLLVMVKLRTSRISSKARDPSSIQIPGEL


What was measured:
[1] = target: T1, human MIC-1 receptor (hGFRAL, GDNF …); assay: cell-based or functional assay
[2] = target: T1, human MIC-1 receptor (hGFRAL, GDNF …); assay: SPA: displacement of 50 pM human [125I]-MIC-1 from BHK21-hGFRAL-IRES-hRET cell membranes
Method: Binding potencies of MIC-1 compounds were calculated by IC50 of displacement curves.
BHK21-hGFRAL-IRES-hRET cells were cultured at +37° C. in a humidified atmosphere with 5% CO₂ in complete medium consisting of DMEM with high glucose and sodium pyrovate, heat inactivated 10% Fetal Bovine Serum, 1% Penicillin-Streptomycin, 1 mg/ml G418-Geneticin and 400 ug/ml Hygromycin. Cells were washed twice in ice cold Dulbecco's phosphate-buffered saline (DPBS) and detached mechanically by scraping, transferred in ice cold DPBS into conical centrifuge tubes and centrifuged for 5 min at 1500 rpm at +20° C. Cell pellet was resuspended in a total amount of 10 ml ice cold homogenization buffer A (50 mM Tris, 2.5 mM EDTA, adjust pH7.4 with one EDTA-free protease inhibitor cocktail tablet/50 ml) and homogenized for 20 seconds. The homogenate was centrifuged at 16000 rpm in 20 minutes at +4° C. The supernatant was discarded and the pellet was reconstituted in 10 ml homogenization buffer B (50 mM Tris, 320 mM Sucrose, adjust pH 7.4 with one EDTA-free protease inhibitor cocktail tablet/50 ml) and homogenized for 20 seconds and centrifuged at 16000 rpm in 20 minutes at +4° C. This procedure was repeated one more time. The supernatant was discarded and the pellet was reconstituted in 3 ml homogenization buffer B and homogenized for 10 seconds at low speed. Protein concentration was determined by standard Bradford method and 1.5 mg protein/tube was aliquoted to cryotubes and stored at −80° C. Binding assays were performed in white 96-well plates in a total volume of 200 μl per well. Wheat germ agglutinin SPA beads were reconstituted in assay buffer (50 mM Tris/HCl, 4.5 mM MgCl₂, 0.02% Tween 20 and 0.25% Ovalbumin pH 7.4) and mixed with membrane preparation to give a final concentration of 0.5 mg SPA beads and 10 μg total protein per well. […] The plate was sealed and incubated at +22° C. for 2 hours in a plate shaker set at 350 rpm and thereafter centrifuged at 1500 rpm for 10 minutes prior to reading of SPA bead light emission.

Luciferase + 0.1% HSA NNDK EC50 (pM) [1] [pM]	Luciferase NNDK EC50 (pM) [1] [pM]	IC50 [2] [nM]	Binder
35	42	116	SEPATSGSETPGTSESATPESGPGTSTEPSEG-MIC-1, del-N3, M57L, M86L, K69R, K107R, K91R (ligand, homodimer; no protractor) SEPATSGSETPGTSESATPESGPGTSTEPSEGARGDHCPLGPGRCCRLHTVRASLEDLGWADWVLSPREVQVTMCIGACPSQFRAANLHAQIKTSLHRLRPDTVPAPCCVPASYNPLVLIQRTDTGVSLQTYDDLLARDCHCI
47	70	6.7	SEPCTSGSETPGTSESATPESGPGTSTEPSEG-MIC-1, des-N3 (Cys mutation A(-29)C) (ligand, homodimer; no protractor) SEPCTSGSETPGTSESATPESGPGTSTEPSEGARGDHCPLGPGRCCRLHTVRASLEDLGWADWVLSPREVQVTMCIGACPSQFRAANMHAQIKTSLHRLKPDTVPAPCCVPASYNPMVLIQKTDTGVSLQTYDDLLAKDCHCI
115	125	29	SEPATSGSETPGTSESACPESGPGTSTEPSEG-MIC-1, des-N3, M57L, M86L (Cys mutation T(-15)C) (ligand, homodimer; no protractor) SEPATSGSETPGTSESACPESGPGTSTEPSEGARGDHCPLGPGRCCRLHTVRASLEDLGWADWVLSPREVQVTMCIGACPSQFRAANLHAQIKTSLHRLKPDTVPAPCCVPASYNPLVLIQKTDTGVSLQTYDDLLAKDCHCI
45	80	10	SEPATCGSETPGTSESATPESGPGTSTEPSEG-MIC-1, des-N3 (Cys mutation S(-27)C) (ligand, homodimer; no protractor) SEPATCGSETPGTSESATPESGPGTSTEPSEGARGDHCPLGPGRCCRLHTVRASLEDLGWADWVLSPREVQVTMCIGACPSQFRAANMHAQIKTSLHRLKPDTVPAPCCVPASYNPMVLIQKTDTGVSLQTYDDLLAKDCHCI

More lines, now with the values behind:

Binder	Luciferase + 0.1% HSA NNDK EC50 (pM) [1] [pM]	Luciferase NNDK EC50 (pM) [1] [pM]	IC50 [2] [nM]
Compound 06 (ligand, Cys-25 (residue 8 of SEQ ID NO: 303): S{Beta}-[2-[2-[[2-[2-[2-[[2-[2-[2-[[(4S)-4-carboxy-4-(17-carboxyheptadecanoylamino)butanoyl]amino]ethoxy]ethoxy]acetyl]amino]ethoxy]ethoxy]acetyl]amino]ethylamino]-2-oxoethyl]Cys (protractor of Example 10.4), homodimer, two protractors per dimer) SEPATSGCETPGTSESATPESGPGTSTEPSEGARGDHCPLGPGRCCRLHTVRASLEDLGWADWVLSPREVQVTMCIGACPSQFRAANLHAQIKTSLHRLKPDTVPAPCCVPASYNPLVLIQKTDTGVSLQTYDDLLAKDCHCI	61	81	21
Compound 17 (ligand, Cys-29 (residue 4 of SEQ ID NO: 288): S{Beta}-[2-[2-[[2-[2-[2-[[2-[2-[2-[[(4S)-4-carboxy-4-(16-sulfohexadecanoylamino)butanoyl]amino]ethoxy]ethoxy]acetyl]amino]ethoxy]ethoxy]acetyl]amino]ethylamino]-2-oxoethyl]Cys (protractor of Example 10.6), homodimer, two protractors per dimer) SEPCTSGSETPGTSESATPESGPGTSTEPSEGARGDHCPLGPGRCCRLHTVRASLEDLGWADWVLSPREVQVTMCIGACPSQFRAANMHAQIKTSLHRLKPDTVPAPCCVPASYNPMVLIQKTDTGVSLQTYDDLLAKDCHCI	65	43	4.7
Compound 11 (ligand, Cys-29 (residue 4 of SEQ ID NO: 290): S{Beta}-[2-[2-[[2-[2-[2-[[2-[2-[2-[[(4S)-4-carboxy-4-(17-carboxyheptadecanoylamino)butanoyl]amino]ethoxy]ethoxy]acetyl]amino]ethoxy]ethoxy]acetyl]amino]ethylamino]-2-oxoethyl]Cys (protractor of Example 10.4), homodimer, two protractors per dimer) SEPCTSGSETPGTSESATPESGPGTSTEPSEGARGDHCPLGPGRCCRLHTVRASLEDLGWADWVLSPREVQVTMCIGACPSQFRAANLHAQIKTSLHRLKPDTVPAPCCVPASYNPLVLIQKTDTGVSLQTYDDLLAKDCHCI	62	55	29
Compound 16 (ligand, alpha-amino group of the N-terminal Ser-32 (residue 1 of SEQ ID NO: 312): N-[4-[[[2-[2-[2-[[2-[2-[2-[[(4S)-4-carboxy-4-(17-carboxyheptadecanoylamino)butanoyl]amino]ethoxy]ethoxy]acetyl]amino]ethoxy]ethoxy]acetyl]amino]methyl]phenyl]methyl (protractor of Example 10.1), homodimer, two protractors per dimer; also called dialkylated) SEPATSGSETPGTSESATPESGPGTSTEPSEGARGDHCPLGPGRCCRLHTVRASLEDLGWADWVLSPREVQVTMCIGACPSQFRAANLHAQIKTSLHRLRPDTVPAPCCVPASYNPLVLIQRTDTGVSLQTYDDLLARDCHCI	51	63	11
Compound 19 (ligand, Cys-29 (residue 4 of SEQ ID NO: 288): S{Beta}-[2-[[(1S)-1-carboxy-5-[[2-[2-[2-[[2-[2-[2-[[(4S)-4-carboxy-4-[10-(4-carboxyphenoxy)decanoylamino]butanoyl]amino]ethoxy]ethoxy]acetyl]amino]ethoxy]ethoxy]acetyl]amino]pentyl]amino]-2-oxoethyl]Cys (protractor of Example 10.8), homodimer, two protractors per dimer) SEPCTSGSETPGTSESATPESGPGTSTEPSEGARGDHCPLGPGRCCRLHTVRASLEDLGWADWVLSPREVQVTMCIGACPSQFRAANMHAQIKTSLHRLKPDTVPAPCCVPASYNPMVLIQKTDTGVSLQTYDDLLAKDCHCI	62	45	17
